Consider 13 molecules from patent US7183387 (Genentech, dated 2007).

Experiment [1] has as its target T1, human FcγRIIB α subunit extracellular domain-His6-GST fusion (human, UniProt P31994 43-217).
T1 construct: extracellular domain; also called CD32; not shown: glutathione S transferase (GST)
T1 sequence: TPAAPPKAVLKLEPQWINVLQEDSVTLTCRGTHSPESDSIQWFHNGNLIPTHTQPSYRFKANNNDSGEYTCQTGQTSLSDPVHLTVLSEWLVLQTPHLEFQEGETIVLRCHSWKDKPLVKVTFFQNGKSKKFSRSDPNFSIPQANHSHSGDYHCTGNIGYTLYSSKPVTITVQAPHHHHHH
As to the kind of experiment: hexamer ELISA.

Experiment [2] concerns the target T2, human FcγRIIIA-Phe158 α subunit extracellular domain-His6-GST fusion (human, UniProt P08637 17-208).
T2 construct: extracellular domain; also called FcγRIIIA-F158; CD16; not shown: glutathione S transferase (GST)
As to the kind of experiment: hexamer ELISA. For orientation: ELISA stands for enzyme-linked immunosorbent assay.

Experiment [3] deals with T3, human FcγRIIA-Arg131 α subunit extracellular domain-His6-GST fusion (human, UniProt P12318 34-217).
T3 construct: extracellular domain; also called FcγRIIA-R131; not shown: glutathione S transferase (GST)
T3 sequence: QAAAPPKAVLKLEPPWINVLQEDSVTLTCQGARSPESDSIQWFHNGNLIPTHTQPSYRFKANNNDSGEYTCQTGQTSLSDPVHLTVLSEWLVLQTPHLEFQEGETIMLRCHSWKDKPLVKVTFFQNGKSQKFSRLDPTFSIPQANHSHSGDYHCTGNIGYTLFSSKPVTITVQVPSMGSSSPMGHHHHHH
As to the kind of experiment: hexamer ELISA.

Experiment [4] has as its target T4, human FcγRIA α subunit extracellular domain-His6-GST fusion (human, UniProt P12314 16-292).
T4 construct: extracellular domain; also called GST-FcγRIA; CD64; not shown: glutathione S transferase (GST)
As to the kind of experiment: FcγRI ELISA and THP-1 cells, averaged.

Experiment [5] concerns the target T5, human neonatal Fc receptor (FcRn), biotinylated (human, UniProt P55899 24-297; P61769 21-119, biotinylated (biotin-X-NHS)).
T5 construct: captured on streptavidin plates
As to the kind of experiment: FcRn ELISA, pH 6.0.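 Also: Streptavidin-captured FcRn plates, IgG variants titrated 2 h at pH 6.0, peroxidase anti-human IgG read at 450 nm, variant over standard concentration at the standard curve mid-point absorbance.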
Description: FcRn Binding ELISA: For measuring FcRn binding activity of IgG variants, ELISA plates were coated with 2 µg/ml streptavidin (Zymed, South San Francisco) in 50 mM carbonate buffer, pH 9.6, at 4° C. overnight and blocked with PBS-0.5% BSA, pH 7.2 at room temperature for one hour. Biotinylated FcRn (prepared using biotin-X-NHS from Research Organics, Cleveland, Ohio and used at 1–2 µg/ml) in PBS-0.5% BSA, 0.05% polysorbate 20, pH 7.2, was added to the plate and incubated for one hour. Two fold serial dilutions of IgG standard (1.6–100 ng/ml) or variants in PBS-0.5% BSA, 0.05% polysorbate 20, pH 6.0, were added to the plate and incubated for two hours. Bound IgG was detected using peroxidase labeled goat F(ab')_2 anti-human IgG F(ab')_2 in the above pH 6.0 buffer (Jackson ImmunoResearch, West Grove, Pa.) followed by 3,3',5,5'-tetramethyl benzidine (Kirgaard & Perry Laboratories) as the substrate. Plates were washed between steps with PBS-0.05% TWEEN 20® at either pH 7.2 or 6.0. Absorbance was read at 450 nm on a Vmax plate reader (Molecular Devices, Menlo Park, Calif.). Titration curves were fit with a four-parameter nonlinear regression curve-fitting program (KaleidaGraph, Synergy software, Reading, Pa.). Concentrations of IgG variants corresponding to the mid-point absorbance of the titration curve of the standard were calculated and then divided by the concentration of the standard corresponding to the mid-point absorbance of the standard titration curve.

Experiment [6] has as its target T6, human FcγRIIA-R131 α subunit extracellular domain-6His-GST fusion (human, UniProt P12318 34-217).
T6 construct: also called FcγRIIA-Arg131; not shown: glutathione S-transferase (GST)
T6 sequence: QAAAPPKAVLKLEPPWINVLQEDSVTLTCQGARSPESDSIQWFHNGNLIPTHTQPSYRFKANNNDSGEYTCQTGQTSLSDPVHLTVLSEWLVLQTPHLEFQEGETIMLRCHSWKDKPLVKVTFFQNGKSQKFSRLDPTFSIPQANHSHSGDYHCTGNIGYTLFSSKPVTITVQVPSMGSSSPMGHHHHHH
As to the kind of experiment: ELISA, IgG:IgE hexamers on receptor-GST.

The target of experiment [7] is T7, human FcγRIIB α subunit extracellular domain-6His-GST fusion (human, UniProt P31994 43-217).
T7 construct: not shown: glutathione S-transferase (GST)
T7 sequence: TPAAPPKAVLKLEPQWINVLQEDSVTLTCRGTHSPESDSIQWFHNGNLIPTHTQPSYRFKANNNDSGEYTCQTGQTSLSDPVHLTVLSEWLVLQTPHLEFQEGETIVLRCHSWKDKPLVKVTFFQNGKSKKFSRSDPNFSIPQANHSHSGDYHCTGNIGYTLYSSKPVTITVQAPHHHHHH
As to the kind of experiment: ELISA, IgG:IgE hexamers on receptor-GST.

In experiment [8] the target is T8, human FcγRIIIA-F158 α subunit extracellular domain-6His-GST fusion (human, UniProt P08637 17-208).
T8 construct: also called FcγRIIIA-Phe158; not shown: glutathione S-transferase (GST)
As to the kind of experiment: ELISA, IgG:IgE hexamers on receptor-GST.

T4 sequence (P12314 other isoform, or with tags, fused parts or gaps): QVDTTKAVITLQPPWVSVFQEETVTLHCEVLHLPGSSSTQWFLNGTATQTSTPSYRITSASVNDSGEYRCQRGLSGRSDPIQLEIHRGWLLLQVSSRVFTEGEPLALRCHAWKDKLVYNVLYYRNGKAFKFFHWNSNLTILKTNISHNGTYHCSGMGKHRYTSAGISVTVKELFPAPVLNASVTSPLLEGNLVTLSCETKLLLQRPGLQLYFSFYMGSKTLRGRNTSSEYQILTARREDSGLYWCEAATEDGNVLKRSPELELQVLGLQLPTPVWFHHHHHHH
T8 sequence (P08637 other isoform, or with tags, fused parts or gaps, form in doubt): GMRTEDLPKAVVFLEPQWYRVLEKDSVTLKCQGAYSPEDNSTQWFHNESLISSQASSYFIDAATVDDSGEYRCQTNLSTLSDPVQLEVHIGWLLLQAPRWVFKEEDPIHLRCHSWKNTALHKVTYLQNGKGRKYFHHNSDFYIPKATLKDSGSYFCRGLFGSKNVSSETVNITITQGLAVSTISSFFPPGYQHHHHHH
T2 sequence (P08637 other isoform, or with tags, fused parts or gaps): as the sequence (P08637 other isoform, or with tags, fused parts or gaps, form in doubt) above
T5 sequence (P55899 24-297 limits assumed, chain 1 of 2): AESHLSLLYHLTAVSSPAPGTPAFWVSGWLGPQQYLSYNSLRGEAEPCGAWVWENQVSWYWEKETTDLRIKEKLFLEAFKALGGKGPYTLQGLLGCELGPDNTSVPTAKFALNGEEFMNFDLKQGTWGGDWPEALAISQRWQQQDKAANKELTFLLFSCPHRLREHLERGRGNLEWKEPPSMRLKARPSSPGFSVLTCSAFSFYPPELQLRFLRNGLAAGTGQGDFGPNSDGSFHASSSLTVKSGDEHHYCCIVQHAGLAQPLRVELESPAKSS
T5 sequence (P61769 21-119 limits assumed, chain 2 of 2): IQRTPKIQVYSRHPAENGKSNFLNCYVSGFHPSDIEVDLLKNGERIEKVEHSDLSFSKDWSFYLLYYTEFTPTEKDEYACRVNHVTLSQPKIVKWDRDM

B1: anti-IgE E27 IgG1 Ala327Gln (antibody)
heavy: not shown
light: DIQLTQSPSSLSASVGDRVTITCRASKPVDGEGDSYLNWYQQKPGKAPKLLIYAASYLESGVPSRFSGSGSGTDFTLTISSLQPEDFATYYCQQSHEDPYTFGQGTKVEIKRTVAAPSVFIFPPSDEQLKSGTASVVCLLNNFYPREAKVQWKVDNALQSGNSQESVTEQDSKDSTYSLSSTLTLSKADYEKHKVYACEVTHQGLSSPVTKSFNRGEC
On to B1, for which the “ratio to native IgG1” value in experiment [1] stood at 0.14 ratio; in experiment [2], 0.06 ratio; in experiment [3], 0.13 ratio; in experiment [4], 0.6 ratio; in experiment [5] it was 0.97 ratio.

B2: anti-IgE E27 IgG1 Arg301Ala (antibody)
heavy: not shown
light: DIQLTQSPSSLSASVGDRVTITCRASKPVDGEGDSYLNWYQQKPGKAPKLLIYAASYLESGVPSRFSGSGSGTDFTLTISSLQPEDFATYYCQQSHEDPYTFGQGTKVEIKRTVAAPSVFIFPPSDEQLKSGTASVVCLLNNFYPREAKVQWKVDNALQSGNSQESVTEQDSKDSTYSLSSTLTLSKADYEKHKVYACEVTHQGLSSPVTKSFNRGEC
Regarding B2, the “ratio to native IgG1” value in experiment [1] turned out to be 1.29 ratio; in experiment [2], 0.22 ratio; in experiment [3], 1.14 ratio; in experiment [4], 1.06 ratio; in experiment [5], 0.86 ratio.

B3: anti-IgE E27 IgG1 Ala339Thr (antibody)
heavy: not shown
light: DIQLTQSPSSLSASVGDRVTITCRASKPVDGEGDSYLNWYQQKPGKAPKLLIYAASYLESGVPSRFSGSGSGTDFTLTISSLQPEDFATYYCQQSHEDPYTFGQGTKVEIKRTVAAPSVFIFPPSDEQLKSGTASVVCLLNNFYPREAKVQWKVDNALQSGNSQESVTEQDSKDSTYSLSSTLTLSKADYEKHKVYACEVTHQGLSSPVTKSFNRGEC
In the case of B3, the “ratio to native IgG1” value in experiment [1] is 1.2 ratio; in experiment [2], 1.34 ratio; in experiment [3], 1.09 ratio; in experiment [4], 1.06 ratio.

B4: E27 IgG1 variant Y296(313)W (antibody)
heavy: not shown
light: DIQLTQSPSSLSASVGDRVTITCRASKPVDGEGDSYLNWYQQKPGKAPKLLIYAASYLESGVPSRFSGSGSGTDFTLTISSLQPEDFATYYCQQSHEDPYTFGQGTKVEIKRTVAAPSVFIFPPSDEQLKSGTASVVCLLNNFYPREAKVQWKVDNALQSGNSQESVTEQDSKDSTYSLSSTLTLSKADYEKHKVYACEVTHQGLSSPVTKSFNRGEC
notes: also called IG2 186
As for B4, the “ratio to native IgG1” value in experiment [6] amounted to 0.96; in experiment [7] it was 0.93; in experiment [8], 1.38.

B5: anti-IgE E27 IgG1 Asn297Ala (antibody)
heavy: not shown
light: DIQLTQSPSSLSASVGDRVTITCRASKPVDGEGDSYLNWYQQKPGKAPKLLIYAASYLESGVPSRFSGSGSGTDFTLTISSLQPEDFATYYCQQSHEDPYTFGQGTKVEIKRTVAAPSVFIFPPSDEQLKSGTASVVCLLNNFYPREAKVQWKVDNALQSGNSQESVTEQDSKDSTYSLSSTLTLSKADYEKHKVYACEVTHQGLSSPVTKSFNRGEC
notes: removes the Asn-linked glycosylation site
Consider B5, for which the “ratio to native IgG1” value in experiment [1] worked out at 0.1 ratio; in experiment [2], 0.03 ratio; in experiment [3], 0.05 ratio; in experiment [5], 0.8 ratio.

B6: E27 IgG1 variant Y296(313)H (antibody)
heavy: not shown
light: DIQLTQSPSSLSASVGDRVTITCRASKPVDGEGDSYLNWYQQKPGKAPKLLIYAASYLESGVPSRFSGSGSGTDFTLTISSLQPEDFATYYCQQSHEDPYTFGQGTKVEIKRTVAAPSVFIFPPSDEQLKSGTASVVCLLNNFYPREAKVQWKVDNALQSGNSQESVTEQDSKDSTYSLSSTLTLSKADYEKHKVYACEVTHQGLSSPVTKSFNRGEC
Take B6: the “ratio to native IgG1” value came to 0.9 in experiment [6], 0.81 in experiment [7] and 0.92 in experiment [8].

B7: anti-IgE E27 IgG1 Ala327Ser (antibody)
heavy: not shown
light: DIQLTQSPSSLSASVGDRVTITCRASKPVDGEGDSYLNWYQQKPGKAPKLLIYAASYLESGVPSRFSGSGSGTDFTLTISSLQPEDFATYYCQQSHEDPYTFGQGTKVEIKRTVAAPSVFIFPPSDEQLKSGTASVVCLLNNFYPREAKVQWKVDNALQSGNSQESVTEQDSKDSTYSLSSTLTLSKADYEKHKVYACEVTHQGLSSPVTKSFNRGEC
As to B7, the “ratio to native IgG1” value in experiment [1] worked out at 0.22 ratio; in experiment [2], 0.06 ratio; in experiment [3] it was 0.23 ratio; in experiment [4], 0.86 ratio.

B8: anti-IgE E27 IgG1 Arg255Ala (antibody)
heavy: not shown
light: DIQLTQSPSSLSASVGDRVTITCRASKPVDGEGDSYLNWYQQKPGKAPKLLIYAASYLESGVPSRFSGSGSGTDFTLTISSLQPEDFATYYCQQSHEDPYTFGQGTKVEIKRTVAAPSVFIFPPSDEQLKSGTASVVCLLNNFYPREAKVQWKVDNALQSGNSQESVTEQDSKDSTYSLSSTLTLSKADYEKHKVYACEVTHQGLSSPVTKSFNRGEC
As to B8, the “ratio to native IgG1” value was determined as 1.59 ratio in experiment [1]; 0.98 ratio in experiment [2]; 1.3 ratio in experiment [3]; 0.99 ratio in experiment [4]; 0.59 ratio in experiment [5].

B9: E27 IgG1 variant V303(322)T (antibody)
heavy: not shown
light: DIQLTQSPSSLSASVGDRVTITCRASKPVDGEGDSYLNWYQQKPGKAPKLLIYAASYLESGVPSRFSGSGSGTDFTLTISSLQPEDFATYYCQQSHEDPYTFGQGTKVEIKRTVAAPSVFIFPPSDEQLKSGTASVVCLLNNFYPREAKVQWKVDNALQSGNSQESVTEQDSKDSTYSLSSTLTLSKADYEKHKVYACEVTHQGLSSPVTKSFNRGEC
With B9, the “ratio to native IgG1” value in experiment [6] was determined as 0.64; in experiment [7], 0.34; in experiment [8], 0.2.

B10: anti-IgE E27 IgG1 Ala378Gln (antibody)
heavy: not shown
light: DIQLTQSPSSLSASVGDRVTITCRASKPVDGEGDSYLNWYQQKPGKAPKLLIYAASYLESGVPSRFSGSGSGTDFTLTISSLQPEDFATYYCQQSHEDPYTFGQGTKVEIKRTVAAPSVFIFPPSDEQLKSGTASVVCLLNNFYPREAKVQWKVDNALQSGNSQESVTEQDSKDSTYSLSSTLTLSKADYEKHKVYACEVTHQGLSSPVTKSFNRGEC
As to B10, the “ratio to native IgG1” value amounted to 1.45 ratio in experiment [1]; 1.19 ratio in experiment [2]; 1.4 ratio in experiment [3]; 1.06 ratio in experiment [4]; 1.32 ratio in experiment [5].

B11: anti-IgE E27 IgG1 Arg292Ala (antibody)
heavy: not shown
light: DIQLTQSPSSLSASVGDRVTITCRASKPVDGEGDSYLNWYQQKPGKAPKLLIYAASYLESGVPSRFSGSGSGTDFTLTISSLQPEDFATYYCQQSHEDPYTFGQGTKVEIKRTVAAPSVFIFPPSDEQLKSGTASVVCLLNNFYPREAKVQWKVDNALQSGNSQESVTEQDSKDSTYSLSSTLTLSKADYEKHKVYACEVTHQGLSSPVTKSFNRGEC
notes: also called R292(309)A
As for B11, the “ratio to native IgG1” value in experiment [1] is 0.17 ratio; in experiment [2], 0.89 ratio; in experiment [3], 0.27 ratio; in experiment [4] it was 0.95 ratio; in experiment [5] it was 0.81 ratio.

B12: E27 IgG1 variant V303(322)L (antibody)
heavy: not shown
light: DIQLTQSPSSLSASVGDRVTITCRASKPVDGEGDSYLNWYQQKPGKAPKLLIYAASYLESGVPSRFSGSGSGTDFTLTISSLQPEDFATYYCQQSHEDPYTFGQGTKVEIKRTVAAPSVFIFPPSDEQLKSGTASVVCLLNNFYPREAKVQWKVDNALQSGNSQESVTEQDSKDSTYSLSSTLTLSKADYEKHKVYACEVTHQGLSSPVTKSFNRGEC
notes: also called IG2 150
In the case of B12, the “ratio to native IgG1” value in experiment [6] stood at 0.89; in experiment [7] it was 0.73; in experiment [8], 0.76.

B13: anti-IgE E27 IgG1 Ala327Gly (antibody)
heavy: not shown
light: DIQLTQSPSSLSASVGDRVTITCRASKPVDGEGDSYLNWYQQKPGKAPKLLIYAASYLESGVPSRFSGSGSGTDFTLTISSLQPEDFATYYCQQSHEDPYTFGQGTKVEIKRTVAAPSVFIFPPSDEQLKSGTASVVCLLNNFYPREAKVQWKVDNALQSGNSQESVTEQDSKDSTYSLSSTLTLSKADYEKHKVYACEVTHQGLSSPVTKSFNRGEC
With B13, the “ratio to native IgG1” value in experiment [1] was found to be 0.83 ratio; in experiment [2] it was 0.36 ratio; in experiment [3], 0.92 ratio; in experiment [4], 0.96 ratio.
